In the supplement of paper PMC6757056:
± gives the standard deviation of the averaged measurements.

B1: library; a variant is named by its letters at N, in order (parent)
chain: GCUGUCACCGGUGCUUGGUACGUUAUAUUCAGCCGGUCUGAUGAGUCUNNNNNNAGACGAAACAGC

How the values were obtained:
(6R,S)-folinic acid [1] = variants of: B1; experiment: normalized RNA/DNA level without ligand (relative to sTRSVctl = 100) (log10 (% of sTRSVctl)); HEK293T overexpressing SLC46A1; higher = less ribozyme self-cleavage, higher mRNA level; settings: without (6R,S)-folinic acid; ligand present: no
Summary of the method: (§1)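 Ribozyme switch library plasmids linked to reporters were introduced into HEK293T cells at 4 µg per 6-well well, with ligand, if any, added 1 h before. Total RNA was extracted with EDTA 72 h later, reverse-transcribed, amplified, barcoded and sequenced. RNA level was computed from RNA over DNA reads relative to a spiked-in non-cleaving sequence or the top sequences, then scaled and log-transformed. The top set was 25 sequences, values were ×100 and log10, and the cutoff was ≥100 DNA reads.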

(6R,S)-folinic acid [2] = variants of: B1; experiment: normalized RNA/DNA level with ligand (relative to sTRSVctl = 100) (log10 (% of sTRSVctl)); HEK293T overexpressing SLC46A1; ligand concentration (+) RNA-Seq: 6 mM; higher = less ribozyme self-cleavage, higher mRNA level; settings: with (6R,S)-folinic acid; ligand present: yes
Summary of the method: as §1

| Variant | normalized RNA/DNA level without ligand (log10) ((6R,S)-folinic acid [1]) | normalized RNA/DNA level with ligand (log10) ((6R,S)-folinic acid [2]) |
| --- | --- | --- |
| UUGCAC | 2.008 ± 0.015 | 2.02 ± 0.026 |
| AUGCAG | 1.92 ± 0.022 | 2 ± 0.032 |
| GUGCAG | 1.931 ± 0.0076 | 2.01 ± 0.021 |
| AUGCAU | 1.934 ± 0.011 | 2.006 ± 0.005 |
| CUGCAU | 1.9723 ± 0.001 | 1.99 ± 0.044 |
| GUGCAU | 1.973 ± 0.0054 | 2.02 ± 0.051 |
| UUGCAU | 1.975 ± 0.0029 | 2.01 ± 0.043 |
| AUGCCA | 2.011 ± 0.0049 | 2.011 ± 0.01 |
| CUGCCA | 2.05 ± 0.027 | 2.04 ± 0.033 |
| GUGCCA | 2.057 ± 0.015 | 2.006 ± 0.0095 |
| UUGCCA | 2.024 ± 0.013 | 2.042 ± 0.02 |
| AUGCCC | 2.037 ± 0.016 | 2.02 ± 0.041 |
| GUGCCC | 2.032 ± 0.012 | 2.02 ± 0.074 |
| UUGCCC | 2.04 ± 0.031 | 2.03 ± 0.036 |
| AUGCCG | 1.979 ± 0.0032 | 2 ± 0.023 |
| CUGCCG | 2.038 ± 0.012 | 2.075 ± 0.0058 |
| UUGCCG | 1.974 ± 0.0045 | 2.03 ± 0.038 |
| AUGCCU | 2.011 ± 0.0046 | 2.015 ± 0.0068 |
| CUGCCU | 2.034 ± 0.011 | 2.003 ± 0.006 |
| GUGCCU | 2.02 ± 0.024 | 1.98 ± 0.039 |
| UUGCCU | 2.07 ± 0.028 | 2.07 ± 0.024 |
| CUGCGA | 2.053 ± 0.0059 | 2.06 ± 0.037 |
| UUGCGA | 1.97 ± 0.022 | 2.02 ± 0.055 |
| AUGCGC | 2.017 ± 0.0084 | 2.009 ± 0.018 |

| Variant | normalized RNA/DNA level without ligand (log10) ((6R,S)-folinic acid [1]) | normalized RNA/DNA level with ligand (log10) ((6R,S)-folinic acid [2]) |
| --- | --- | --- |
| CUGCGC | 2.06 ± 0.0038 | 2.009 ± 0.019 |
| GUGCGC | 1.965 ± 0.01 | 2.01 ± 0.057 |
| UUGCGC | 2.062 ± 0.007 | 2.079 ± 0.00078 |
| CUGCGG | 2.052 ± 0.0072 | 2.066 ± 0.0066 |
| GUGCGG | 1.968 ± 0.014 | 2.0481 ± 0.00061 |
| UUGCGG | 1.96 ± 0.02 | 2 ± 0.031 |
| CUGCGU | 2.059 ± 0.011 | 2.06 ± 0.039 |
| UUGCGU | 1.98 ± 0.031 | 2.03 ± 0.032 |
| AUGCUA | 2.021 ± 0.0056 | 2.01 ± 0.024 |
| CUGCUA | 2.02 ± 0.021 | 2.05 ± 0.031 |
| GUGCUA | 1.994 ± 0.0059 | 1.98 ± 0.04 |
| AUGCUC | 2.053 ± 0.0063 | 2.03 ± 0.053 |
| CUGCUC | 2.11 ± 0.053 | 2.02 ± 0.034 |
| GUGCUC | 2.05 ± 0.032 | 2.01 ± 0.045 |
| UUGCUC | 2.046 ± 0.01 | 2.02 ± 0.052 |
| AUGCUG | 1.986 ± 0.003 | 2 ± 0.017 |
| CUGCUG | 2.044 ± 0.0052 | 2.03 ± 0.041 |
| UUGCUG | 1.978 ± 0.004 | 2.01 ± 0.05 |
| AUGCUU | 2.006 ± 0.018 | 2.037 ± 0.014 |
| CUGCUU | 2.046 ± 0.013 | 2.04 ± 0.03 |
| GUGCUU | 2.037 ± 0.0067 | 2.039 ± 0.015 |
| UUGCUU | 2.016 ± 0.013 | 2.04 ± 0.04 |
| GUGGAA | 1.915 ± 0.0022 | 2.01 ± 0.048 |
| CUGGAC | 1.9905 ± 0.0006 | 2 ± 0.038 |

| Variant | normalized RNA/DNA level without ligand (log10) ((6R,S)-folinic acid [1]) | normalized RNA/DNA level with ligand (log10) ((6R,S)-folinic acid [2]) |
| --- | --- | --- |
| UUGGAC | 1.972 ± 0.015 | 1.98 ± 0.032 |
| CUGGAG | 1.883 ± 0.01 | 1.99 ± 0.029 |
| GUGGAG | 1.86 ± 0.027 | 2 ± 0.041 |
| AUGGAU | 1.889 ± 0.0038 | 2.01 ± 0.033 |
| GUGGAU | 1.9394 ± 0.0013 | 2.01 ± 0.035 |
| UUGGAU | 1.971 ± 0.012 | 2.022 ± 0.012 |
| AUGGCA | 1.9865 ± 2.8e-05 | 2 ± 0.046 |
| CUGGCA | 1.999 ± 0.0069 | 1.98 ± 0.042 |
| UUGGCA | 2.013 ± 0.011 | 2.06 ± 0.035 |
| AUGGCC | 2.063 ± 0.0035 | 2.04 ± 0.05 |
| CUGGCC | 2.079 ± 0.011 | 2.03 ± 0.032 |
| UUGGCC | 2.046 ± 0.019 | 2.03 ± 0.05 |
| CUGGCG | 1.99 ± 0.026 | 2.03 ± 0.037 |
| GUGGCG | 1.993 ± 0.0028 | 2.015 ± 0.0038 |
| UUGGCG | 1.8766 ± 0.00065 | 2.03 ± 0.062 |
| AUGGCU | 1.989 ± 0.011 | 2.02 ± 0.031 |
| GUGGCU | 2.047 ± 0.0085 | 2.06 ± 0.028 |
| UUGGCU | 2.055 ± 0.0023 | 2.04 ± 0.041 |
| UUGGGA | 1.881 ± 0.0033 | 2.03 ± 0.039 |
| AUGGGC | 2.014 ± 0.0055 | 2.03 ± 0.041 |
| CUGGGC | 2.059 ± 0.0035 | 2.03 ± 0.03 |
| UUGGGC | 2.036 ± 0.0078 | 2.037 ± 0.0067 |
| CUGGGG | 1.871 ± 0.005 | 2.007 ± 0.0051 |
| GUGGGG | 1.94 ± 0.026 | 2.03 ± 0.028 |

| Variant | normalized RNA/DNA level without ligand (log10) ((6R,S)-folinic acid [1]) | normalized RNA/DNA level with ligand (log10) ((6R,S)-folinic acid [2]) |
| --- | --- | --- |
| AUGGGU | 1.82 ± 0.006 | 1.998 ± 0.0034 |
| CUGGGU | 2.025 ± 0.02 | 2.032 ± 0.017 |
| GUGGGU | 1.98 ± 0.022 | 2 ± 0.045 |
| CUGGUA | 1.95 ± 0.023 | 1.98 ± 0.034 |
| GUGGUA | 1.913 ± 0.0048 | 1.97 ± 0.019 |
| UUGGUA | 1.92 ± 0.021 | 1.999 ± 0.014 |
| AUGGUC | 2.055 ± 0.0035 | 2.04 ± 0.029 |
| CUGGUC | 2.057 ± 0.0038 | 2.04 ± 0.044 |
| GUGGUC | 2.02 ± 0.023 | 2 ± 0.029 |
| UUGGUC | 2.047 ± 0.0021 | 2.041 ± 0.003 |
| CUGGUG | 1.982 ± 0.0025 | 2.04 ± 0.037 |
| CUGGUU | 1.97 ± 0.04 | 1.99 ± 0.046 |
| UUGGUU | 2.014 ± 0.0096 | 2.052 ± 0.019 |
| AUGUAA | 1.938 ± 0.011 | 2 ± 0.023 |
| CUGUAA | 1.958 ± 0.018 | 2.02 ± 0.037 |
| UUGUAA | 1.943 ± 0.011 | 2.003 ± 0.016 |
| AUGUAC | 1.959 ± 0.01 | 1.98 ± 0.025 |
| CUGUAC | 1.992 ± 0.017 | 2.013 ± 0.013 |
| UUGUAC | 1.9902 ± 0.00038 | 2.02 ± 0.045 |
| CUGUAG | 1.925 ± 0.016 | 2.02 ± 0.041 |
| AUGUAU | 1.94 ± 0.025 | 2.03 ± 0.027 |
| GUGUAU | 1.962 ± 0.0048 | 2.01 ± 0.022 |
| AUGUCA | 1.979 ± 0.0033 | 2.01 ± 0.016 |
| CUGUCA | 2.033 ± 0.011 | 2.07 ± 0.039 |

| Variant | normalized RNA/DNA level without ligand (log10) ((6R,S)-folinic acid [1]) | normalized RNA/DNA level with ligand (log10) ((6R,S)-folinic acid [2]) |
| --- | --- | --- |
| UUGUCA | 1.976 ± 0.015 | 2.042 ± 0.0095 |
| AUGUCC | 2.04 ± 0.026 | 2.0107 ± 0.0015 |
| CUGUCC | 2.059 ± 0.0043 | 2.043 ± 0.017 |
| GUGUCC | 1.97 ± 0.011 | 1.99 ± 0.034 |
| UUGUCC | 2.008 ± 0.0064 | 2.045 ± 0.02 |
| AUGUCG | 1.93 ± 0.0088 | 1.99 ± 0.027 |
| CUGUCG | 2 ± 0.031 | 2.06 ± 0.065 |
| GUGUCG | 2.006 ± 0.0093 | 2.06 ± 0.037 |
| UUGUCG | 1.94 ± 0.032 | 2.03 ± 0.034 |
| AUGUCU | 1.993 ± 0.017 | 1.99 ± 0.02 |
| CUGUCU | 2.037 ± 0.0082 | 2.04 ± 0.034 |
| GUGUCU | 1.982 ± 0.0041 | 1.98 ± 0.045 |
| UUGUCU | 2.053 ± 0.0052 | 2.09 ± 0.022 |
| AUGUGA | 1.944 ± 0.014 | 2.014 ± 0.019 |
| CUGUGA | 2.028 ± 0.0096 | 2.04 ± 0.035 |
| UUGUGA | 1.96 ± 0.0028 | 2.04 ± 0.031 |
| AUGUGC | 1.97 ± 0.021 | 1.981 ± 0.018 |
| CUGUGC | 2.01 ± 0.05 | 2.02 ± 0.028 |
| UUGUGC | 2.018 ± 0.0046 | 2.053 ± 0.02 |
| CUGUGG | 1.96 ± 0.0026 | 2.059 ± 0.016 |
